Assay [1] has as its target ExbBSm, untagged, co-expressed and co-purified with ExbDSm-His6 (from pBADExbBDSmHis6) (Serratia marcescens). As to the kind of experiment: cryo-EM structure; purified ExbBDSm complex (His6 on ExbD) in LMNG micelles, ca. 1 mg/mL, 20 mM Tris pH 8.0, 100 mM NaCl, 0.0015% LMNG; single-particle, C1, 3.96 Å.
The target in assay [2] is ExbBSm, C-terminally His6-tagged (from pBADExbBSmHis6), purified alone (Serratia marcescens). As to the kind of experiment: cryo-EM structure; purified ExbBSm-His6 alone in LMNG micelles, ca. 1 mg/mL, 20 mM Tris pH 8.0, 100 mM NaCl, 0.0015% LMNG; single-particle, C5 symmetry, 3.1 Å.
Assay [3] concerns the target T1, C-terminal periplasmic domain of HasB, HasBCTD, residues 133-263 (Serratia marcescens, UniProt Q79AD1 133-263, 15N-labeled).
T1 construct: HasB, TonB paralog of Serratia marcescens, C-terminal periplasmic domain, residues 133-263; also called C-terminal globular domain of HasB
T1 sequence (looked up): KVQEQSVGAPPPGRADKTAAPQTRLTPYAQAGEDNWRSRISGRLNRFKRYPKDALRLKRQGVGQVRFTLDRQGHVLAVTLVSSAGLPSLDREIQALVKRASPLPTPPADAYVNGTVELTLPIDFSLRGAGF
Put plainly: NMR titration; 1H-15N HSQC of 0.15 mM 15N-labeled HasBCTD, 50 mM sodium phosphate pH 7, 50 mM NaCl, 293 K, 600 MHz; peptide added at 2:1 and 10:1 ratios; chemical shift perturbations. The settings on record: both partners purified.

The stoichiometry N is the number of molecules, sites or subunits per partner or assembly. “ExbBSm, untagged, co-expressed and co-purified with ExbDSm-His6 (from pBADExbBDSmHis6) (natural protein)” returned a stoichiometry N in assay [1] of 5.

“ExbDSm, C-terminally His6-tagged (from pBADExbBDSmHis6) (natural protein)” registered a stoichiometry N (ExbD monomers per ExbB pentamer) in assay [1] of 2.

The molecule “ExbBSm, C-terminally His6-tagged (from pBADExbBSmHis6), purified alone (natural protein)” returned a stoichiometry N in assay [2] of 5.

B1: ExbBSm 1-44 synthetic peptide (periplasmic extension of ExbBSm) (peptide)
peptide: APAANPAVTESVAPTTAPAPAAAAPESITPVNPAPTIQPPETRG
notes: ExbB of Serratia marcescens Db11 (SMDB11_3480), periplasmic N-terminal extension, residues 1-44. numbers count on: the mature protein; also called periplasmic peptide of ExbBSm residues 1-44; periplasmic fragment of ExbBSm; source: synthetic peptide (Proteogenix)
Regarding B1, the binding result in assay [3] is “binds”.

These data come from paper PMC9008036, “Structural and molecular determinants for the interaction of ExbB from Serratia marcescens and HasB, a TonB paralog” (Communications Biology, 2022).
